From PMC11997583

What was measured:
[1] = GFP/γH2AX colocalisation foci after damage, U2OS; conditions: glycan lost; control: GFP-YTHDC1-WT, no inhibitor
[2] = neutral comet assay after Zeocin; conditions: glycan lost; control: YTHDC1-WT rescue after siYTHDC1
[3] = γH2AX foci count after Zeocin release; conditions: glycan lost; control: GFP-YTHDC1-WT
[4] = CCK-8 assay, Zeocin doses and durations; conditions: glycan lost; control: YTHDC1-WT
[5] = GFP foci count after Zeocin or IR, U2OS; conditions: glycan lost; control: GFP-YTHDC1-WT
[6] = Rad51/γH2AX co-staining after Zeocin, U2OS; conditions: glycan lost; control: YTHDC1-WT rescue after siYTHDC1
[7] = FRAP of GFP-YTHDC1 puncta, basal conditions; conditions: glycan lost; control: GFP-YTHDC1-WT
[8] = FRAP of GFP-YTHDC1 puncta, Zeocin vs untreated; conditions: glycan lost; control: GFP-YTHDC1-WT
[9] = chromatin fractionation, anti-Flag blot, Zeocin, 293T; conditions: glycan lost; control: YTHDC1-WT

YTHDC1: OSMI-1
localisation_or_trafficking [1]: decreases

YTHDC1: S396A
other: DSB repair kinetics [2]: decreases | other: persisting γH2AX foci after damage [3]: increases | other: cell survival after Zeocin [4]: decreases | localisation_or_trafficking [5]: decreases | other: Rad51 recruitment to DSBs [6]: decreases | other: condensate dynamics (FRAP recovery) [7]: increases | other: Zeocin-induced change in FRAP rate [8]: abolishes | localisation_or_trafficking [1]: decreases | localisation_or_trafficking [9]: abolishes
